Assay [1] deals with T1, GST-fused Cα-subunit of mouse PKA (GST-PKAC) (mouse, UniProt P05132 1-351). In words: pull-down.
Assay [2] deals with T1, GST-fused Cα-subunit of mouse PKA …. The assay is described as follows: pull-down. The source holds these as a separate data set.

Some results are limits rather than exact numbers.

As usually defined, the IC50 is the point on the concentration scale where inhibition reaches its midpoint. Lower therefore signals higher potency. As a reminder, the Kd is the free concentration of one partner at which half of the binding sites on the other are occupied at equilibrium, for simple one-to-one binding. High values mean lower affinity, low ones higher affinity.

B1: His8-DCRD-Myc (domain or fragment)
chain: RQFHGSASSLVEAVLISEGLGQFAQDPKFIEVTTQELADACDLTIEEMENAADDILSGGARQS
As to B1, in assay [1], the IC50 stood at 0.88 µM. This molecule had a Kd in assay [2] of under 1 µM.

The values are drawn from article doi:10.1101/2023.11.28.564875 (bioRxiv, 2023).
